Patent US20110262525A1, “METHODS OF TREATMENT” (SCHERING CORPORATION, priority 2006, published 2011)

Tests used:
[1] = test system: SK-NEP-1 xenograft (Ewings); experiment: PPTP in vivo xenograft SK-NEP-1; conditions: SK-NEP-1 (Ewings) xenograft, 0.5 mg per mouse ip twice weekly for four weeks
Protocol: (§1) The PPTP includes a molecularly characterized in vitro panel of cell lines (n=27) and in vivo panel of xenografts (n=61) representing most of the common types of childhood solid tumors and childhood ALL (acute lymphoblastic leukemia). LCF/HCA anti-IGF1R antibody was tested against the PPTP in vitro panel at concentrations ranging from 0.01 nM to 100 nM; and was tested against the PPTP in vivo panel at a dose of 0.5 mg per mouse administered twice weekly for four weeks via intraperitoneal injection. Three measures of antitumor activity were used: 1) response criteria modeled after the clinical setting; 2) treated-to-control (T/C) tumor volume at day 21; and 3) a time to event (4-fold increase in tumor volume) measure based on the median EFS of treated and control lines (intermediate activity required EFS (event-free survival) T/C>2, and high activity additionally required a net reduction in median tumor volume at the end of the experiment).
(§2) Stage 1 testing involved testing an agent across the entire PPTP panel of childhood cancer xenograft lines at its maximum tolerated dose (MTD) or at a dose selected based on PK/PD (pharmacokinetic/pharmacodynamic) studies using adult preclinical models.
(§3) In vivo solid tumor testing: For each xenograft line, 10 mice bearing subcutaneous (SC) tumors initiated treatment when the tumors were between 0.2-0.5 cm^3 in volume. Two perpendicular tumor diameters were measured at once weekly intervals with digital vernier calipers. Assuming tumors to be spherical, volumes were calculated from the formula (π/6)×d3, where d represented the mean diameter.
(§4) Drug: LCF/HCA was dissolved in 20mM sodium acetate pH 5 buffer containing 150 mM sodium chloride, and administered intraperitoneally twice weekly for 4 consecutive weeks at a dose of 0.5 mg per animal. […]
(§5) Median Group Response: Each individual mouse in each treatment group was assigned a response score (see Tables above) and a median score for the treatment group was calculated and then each treatment group was assigned an overall response according to the table below. […]

[2] = test system: ALL-7 xenograft (ALL B-precursor); experiment: PPTP in vivo leukemia xenograft ALL-7; conditions: ALL-7 (ALL B-precursor) xenograft; 0.5 mg per mouse ip twice weekly for four weeks
Protocol: (§6) The PPTP includes a molecularly characterized in vitro panel of cell lines (n=27) and in vivo panel of xenografts (n=61) representing most of the common types of childhood solid tumors and childhood ALL (acute lymphoblastic leukemia). LCF/HCA anti-IGF1R antibody was tested against the PPTP in vitro panel at concentrations ranging from 0.01 nM to 100 nM; and was tested against the PPTP in vivo panel at a dose of 0.5 mg per mouse administered twice weekly for four weeks via intraperitoneal injection. […]
(§7) In vivo acute lymphoblastic leukemia testing: For each xenograft line, 8 mice were inoculated with 3-5×10^6 mononuclear cells purified from the spleens of secondary recipient mice. Engraftment was monitored weekly by flow cytometry, and treatment was initiated when the proportion of human CD45+ cells in the peripheral blood reached 1%. The proportion of human CD45+ cells in the peripheral blood was monitored weekly throughout the course of treatment. […]
as §5

[3] = test system: NB-1643 xenograft (Neuroblastoma); experiment: PPTP in vivo xenograft NB-1643; conditions: NB-1643 (Neuroblastoma) xenograft, 0.5 mg per mouse ip twice weekly for four weeks
Protocol: as §1, §2, §3
(§8) Drug: LCF/HCA was dissolved in 20mM sodium acetate pH 5 buffer containing 150 mM sodium chloride, and administered intraperitoneally twice weekly for 4 consecutive weeks at a dose of 0.5 mg per animal. The antibody was provided to each testing site in coded vials for blinded testing according the PPTP's standard operating procedures.
(§9) Median Group Response: Each individual mouse in each treatment group was assigned a response score (see Tables above) and a median score for the treatment group was calculated and then each treatment group was assigned an overall response according to the table below.
(§10) Statistical Methods: Event-free survival (EFS) distributions of each treatment group were compared to the EFS distribution of the respective control group using the exact log rank test. P-values were 2-sided & were not adjusted for multiple comparisons given the exploratory nature of this study. P-values<0.05 were considered to be significant.

[4] = test system: BT-46 xenograft (Medulloblastoma); experiment: PPTP in vivo xenograft BT-46; conditions: BT-46 (Medulloblastoma) xenograft, 0.5 mg per mouse ip twice weekly for four weeks
Protocol: as §1, §2, §3, §4, §5

[5] = test system: OS-9 xenograft (Osteosarcoma); experiment: PPTP in vivo xenograft OS-9; parameters: key to EFS activity notation (high, intermediate, indeterminate): high (!); intermediate (#); indeterminate (^); conditions: OS-9 (Osteosarcoma) xenograft, 0.5 mg per mouse ip twice weekly for four weeks
Protocol: as §1, §2, §3, §8, §9, §10

[6] = test system: ALL-16 xenograft (ALL T-cell); experiment: PPTP in vivo leukemia xenograft ALL-16; conditions: ALL-16 (ALL T-cell) xenograft; 0.5 mg per mouse ip twice weekly for four weeks
Protocol: as §6, §7, §5

[7] = test system: OS-17 xenograft (Osteosarcoma); experiment: PPTP in vivo xenograft OS-17; conditions: OS-17 (Osteosarcoma) xenograft, 0.5 mg per mouse ip twice weekly for four weeks
Protocol: as §1, §2, §3, §8, §9, §10

[8] = test system: GBM2 xenograft (Glioblastoma); experiment: PPTP in vivo xenograft GBM2
Protocol: as §1, §2, §3, §4, §5

[9] = test system: BT-29 xenograft (Rhabdoid); experiment: PPTP in vivo xenograft BT-29; conditions: BT-29 (Rhabdoid) xenograft, 0.5 mg per mouse ip twice weekly for four weeks
Protocol: as §1, §2, §3, §4, §5

[10] = test system: ALL-3 xenograft (ALL B-precursor); experiment: PPTP in vivo leukemia xenograft ALL-3; conditions: ALL-3 (ALL B-precursor) xenograft; 0.5 mg per mouse ip twice weekly for four weeks
Protocol: as §6, §7, §5

[11] = test system: squamous cell carcinoma cell line SCC 9; experiment: Cell-Titer Glo proliferation assay, SCC9; type: cell-based; conditions: 0.000256-100 nM antibody, 96 hours
Protocol: Cell proliferation was assayed using a Cell-Titer Glo assay (Promega Corp.; Madison, Wis.). A cell-titer glo assay generates a “glow” luminescent signal in the presence of ATP from viable cells, which can be detected with a plate reader luminometer or CCD imaging device.
In this assay, squamous cell carcinoma cells, SCC9, SCC25 and SCC15, were trypsinized, counted and resuspended at 25,000 cells/ml in 10% HI-FBS RPMI containing NEAA, L-Glu, MEM Vitamins and PS. […] (2500 cells) were added to each well BD Falcon 96 well black, clear bottom TC treated plate. Cells were allowed to attach and spread overnight at 37° C. Then, 10% RPMI medium was replaced with […] 2% RPMI, containing the LCF/HCA antibody at the appropriate concentration, the following day. The anti-IGF1R antibody concentrations used in each experiment were 100 nM, 20 nM, 5 nM, 0.8 nM, 0.16 nM, 0.032 nM, 0.0064 nM, 0.00128 nM, and 0.000256 nM. All treatments were prepared in 2% RPMI at 20× concentration and serial diluted. Every test point was prepared in triplicate on separate assay plates. As mentioned above, cell proliferation was measured using the CellTiter-Glo Luminescent Cell Viability Assay (Promega) at 96 hours post treatment. Luminescence was detected on a Wallac 420 Plate Reader with stacker.

[12] = test system: gastric cancer cell line SNU-16; experiment: Cell-Titer Glo proliferation assay, SNU-16; type: cell-based, human; conditions: 0.000256-100 nM antibody
[13] = 0.5 mg per mouse ip twice weekly for four weeks

B1: LCF/HCA: fully human anti-IGF1R antibody comprising the mature 19D12/15H12 light chain F (LCF) and mature heavy chain A (HCA) (antibody, V domains shown)
VH: EVQLVQSGGGLVHPGGSLRLSCAASGFTFSSFAMHWVRQAPGKGLEWISVIDTRGATYYADSVKGRFTISRDNAKNSLYLQMNSLRAEDMAVYYCARLGNFYYGMDVWGQGTTVTVSS
VL: EIVLTQVPDFQSVTPKEKVTITCRASQSIGSSLHWYQQKPDQSPKLLIKYASQSLSGVPSRFSGSGSGTDFTLTINSLEAEDAAAYYCHQSSRLPHTFGGGTKVEIKRT
B1 was tested, and the “EFS T/C” value [1] was 0.9, the “Median Final RTV” value [1] was >4 and the “Tumor Volume T/C” value ([1]; day 21) was 1.08. For the same molecule, the “EFS T/C” value [2] was 1, the “Median Final RTV” value [2] was >25 and the “EFS T/C” value [3] was 1.8. The “Median Final RTV” value [3] was >4, the “Overall Group Response” value [3] was “PD2 (1 < MS ≦ 3)” and the “Tumor Volume T/C” value ([3]; day 21) was 0.53. For the same molecule, the “EFS T/C” value [4] was 1.2, the “Median Final RTV” value [4] was >4 and the “Tumor Volume T/C” value ([4]; day 21) was 0.69. The “EFS T/C” value [5] was > 1.2, the “EFS activity notation (high, intermediate, indeterminate)” value [5] was “^” and the “Median Final RTV” value [5] was 0.4^. For the same molecule, the “Tumor Volume T/C” value ([5]; day 21) was 0.31, the “EFS T/C” value [6] was 1 and the “Median Final RTV” value [6] was >25. For the same molecule, the “EFS T/C” value [7] was 2, the “Median Final RTV” value [7] was >4 and the “Overall Group Response” value [7] was “PD2 (1 < MS ≦ 3)”. For the same molecule, the “Tumor Volume T/C” value ([7]; day 21) was 0.55, the “EFS T/C” value [8, 13] was 1.4 and the “Median Final RTV” value [8, 13] was >4. The “Tumor Volume T/C” value ([8]; day 21, 0.5 mg per mouse ip twice weekly for four weeks) was 0.73, the “EFS T/C” value [9] was 1.4 and the “Median Final RTV” value [9] was >4. For the same molecule, the “Tumor Volume T/C” value ([9]; day 21) was 0.77, the “EFS T/C” value [10] was 0.4 and the “Median Final RTV” value [10] was >25. The “proliferation of squamous cell carcinoma cell line” value [11] was “inhibited” and the “proliferation of gastric cancer cell line” value [12] was “inhibitied”.
